Experimental data as given in article PMC9864903, “Imaging of the Glucose-Dependent Insulinotropic Polypeptide Receptor Using a Novel Radiolabeled Peptide Rationally Designed Based on Endogenous GIP and Synthetic Exendin-4 Sequences” (Pharmaceuticals, 2022).
Entries after “also recorded” stand apart in the source; their conditions may differ.

Assays:
[1] = pharmacokinetics in rats after subcutaneous administration; format: in vivo; settings: rat
Text: The potency of the peptide conjugate in terms of EC50 was studied using C803-GIP and C803-GIP loaded with a stable isotope of gallium (Ga-C803-GIP) in HEK293 cells transfected with the GIPR from human, monkey (NHP), and rat species. In addition, the cross-reactivity was studied in HEK293 cells transfected with the GLP1-R and GCGR. […] In contrast, the EC50 for the rat GIPR was one order of magnitude poorer. […] The pharmacokinetic properties were investigated in vivo in rats. […] The average plasma concentration calculated to the infinity (AUCinf) was 1370 h*ng/mL.
Figure 1 Plasma concentration of Ga-C803-GIP measured at 3, 6, 9.6, 19.8, 30, 60, 120, and 240 min post subcutaneous administration in rats (n = 3). The error bars are not seen due to the low SD values.

[2] = chemical stability of Ga-C803-GIP at ambient temperature and pH 4.5; format: physicochemical; settings: for at least one week at ambient temperature and pH 4.5
Text: C803-GIP has a sequence partially similar to that of hGIP(1-30), wherein L-Alanine at position 2 was exchanged to D-Alanine, Methionine at position 14 was exchanged to Leucine, Aspartic acid at position 21 was exchanged to Glutamic acid, Valine at position 23 was exchanged to Isoleucine, Asparagine at position 24 was exchanged to Glutamic acid, Leucine at position 27 was exchanged to Lysine, and both Glutamine at position 29 and Lysine at position 30 were exchanged to Glycine. The sequence was amended with Histidine (31), Proline (32), and seven more residues corresponding to those found in exendin-4 (Serine(33)-Glycine(34)-Alanine(35)-Proline(36)-Proline(37)-Proline(38)-Serine(39)). The peptide sequence was conjugated via terminal Serine(39) to a DOTA chelator moiety functionalized with a vinyl sulfone linker and cysteine amide (Table 1). C803-GIP was loaded with stable isotopes of gallium to yield Ga-C803-GIP for the subsequent investigation of the stability and biological activity. Ga-C803-GIP was stable with a purity of over 95% for at least one week at ambient temperature and pH 4.5.

[3] = dynamic PET/CT organ distribution in pig; format: in vivo; settings: infusion of GIP(1-42) 20 pmol/kg/min
Text: An anesthetized pig (25 kg) was positioned to include the abdomen with pancreas in the center of the 25 cm axial field of view of a Discovery MI PET/CT scanner (GE Healthcare, MI, USA) by assistance of a low-dose CT scout view (140 kV, 10 mAs). The details of the animal handling, preparation, and anesthesia have been previously described.
Attenuation correction was acquired by a 140 kV, 10–80 mA CT examination. The administration of [^68Ga]Ga-C803-GIP (17.3 MBq, corresponding to approximately 2.5 μg peptide or 0.10 μg/kg) was made upon the start of the baseline dynamic scan lasting for 90 min (30 frames; […]). The dynamic scan was followed by a static scan over the brain from 90–120 min post administration. A second PET investigation was performed after an additional 2 h to allow the radioactivity from the first scan to fade from the circulation by decay and excretion.
The GIP(1-42) infusion was continued until the end of the PET scan. Finally, after the last PET scan, a contrast-enhanced CT scan was performed to assist delineation of the tissues, e.g., the pancreas.
Segmentation of the tissues of interest (descending aorta, pancreas, spleen, kidney, liver, and muscle) was performed in PMOD (PMOD Technologies), and time–activity curves were expressed as SUV as detailed above.

GIPR = settings: affinity for the GIPR; cited from earlier work
Text: This effect may be due to the exchange of Aib(2) to A(2), L(10) to Y(10), R(16) to K(16), E(20) to Q(20), L(27) to K(27), K(31) to H(31), and the addition of the C-terminal tail ((32-39); […]). [^68Ga]Ga-C803-GIP was furthermore evaluated for its affinity, internalization, and binding specificity towards the GIPR.

## CC[C@H](C)[C@H](NC(=O)[C@H](CO)NC(=O)[C@H](Cc1ccc(O)cc1)NC(=O)[C@H](CC(=O)O)NC(=O)[C@H](CO)NC(=O)[C@@H](NC(=O)[C@H](Cc1ccccc1)NC(=O)[C@@H](NC(=O)CNC(=O)[C@H](CCC(=O)O)NC(=O)[C@@H](C)NC(=O)[C@@H](N)Cc1ccc(O)cc1)[C@@H](C)O)[C@@H](C)CC)C(=O)N[C@@H](C)C(=O)N[C@@H](CC(C)C)C(=O)N[C@@H](CC(=O)O)C(=O)N[C@@H](CCCCN)C(=O)N[C@H](C(=O)N[C@@H](Cc1c[nH]cn1)C(=O)N[C@@H](CCC(N)=O)C(=O)N[C@@H](CCC(N)=O)C(=O)N[C@@H](CCC(=O)O)C(=O)N[C@@H](Cc1ccccc1)C(=O)N[C@H](C(=O)N[C@@H](CCC(=O)O)C(=O)N[C@@H](Cc1c[nH]c2ccccc12)C(=O)N[C@@H](CC(C)C)C(=O)N[C@@H](CCCCN)C(=O)N[C@@H](C)C(=O)NCC(=O)NCC(=O)N[C@@H](Cc1c[nH]cn1)C(=O)N1CCC[C@H]1C(=O)N[C@@H](CO)C(=O)NCC(=O)N[C@@H](C)C(=O)N1CCC[C@H]1C(=O)N1CCC[C@H]1C(=O)N1CCC[C@H]1C(=O)N[C@@H](CO)C(=O)N[C@@H](CSCCS(=O)(=O)CCN1CCN(CC(=O)O)CCN(CC(=O)O)CCN(CC(=O)O)CC1)C(N)=O)[C@@H](C)CC)[C@@H](C)CC [Ga-C803-GIP]
[1]; plasma, sc, 1 mg/kg, n = 3
  half-life: 22.8 min
[1]; 1 mg/kg, n = 3
  AUCinf: 1370 ng·h/mL
  plasma clearance (CL): 12.2 mL/min/kg
[1]; n = 3, 240 min post administration
  plasma concentration at the 240 min time point: below the limit of detection
[2]
  purity on storage (stability): over 95%

## YAEGTFISDYSIAMDKIHQQDFVNWLLAQKGKKNDWKHNITQ [GIP(1-42), reference compound]
[3]
  effect of GIP(1-42) on uptake of [68Ga]Ga-C803-GIP in tissues: did not reduce the uptake; also recorded: did not affect the uptake pattern

## [Lys37(111In-DTPA)]N-acetyl-GIP1-42
GIPR
  IC50: 4.8 µM
